Results: the supplement of paper PMC9170038

System: MS2 coat protein
Assay: apparent KD of MS2 coat protein; designed switch direction (-1 OFF switch, 1 ON switch): -1; higher = weaker reporter binding
Method in brief: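 Apparent KD, taken as the median over clusters for each design, was obtained by curve-fitting normalised cluster fluorescence. Designed RNA switches had been transcribed on Illumina chips by stalled E. coli RNA polymerase and titrated with SNAP-549-labelled MS2 coat protein, doubling from 0.7 or 1.5 nM to 3 µM.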

[1] = input ligand: microRNA oligo, concentration not stated

UGAGUGCUGCGAGGAUAUACAUGAGGAUCACCCAUGUUUUCCUGUGAGGCAUAGCCUCACAGGAUGUAGAAGGCGCAGUACUCU [Mat - Exclusion NG 2 - Mod of JL - D28] (Eterna round: R96, puzzle: Exclusion NG 2)
apparent KD of MS2 coat protein (input ligand: FMN 200 uM): 10.6 nM
apparent KD of MS2 coat protein [1]: 8.03 nM
apparent KD of MS2 coat protein (input ligand: none): 13.8 nM

UGAUCUAGCGGAGGAUAUACAUGAGGAUCACCCAUGUAUAGGCUAUCUGGUGACAGGUGGAACAUGUAGAAGGCCGCUAGAUCU [JL ENG2 3.80] (Eterna round: R96, puzzle: Exclusion NG 2)
apparent KD of MS2 coat protein (input ligand: FMN 200 uM): 78.1 nM
apparent KD of MS2 coat protein [1]: 12.7 nM
apparent KD of MS2 coat protein (input ligand: none): 17.9 nM

UGAUCUUGAGUCAGGAUAUGCUGGUAUUUUUACCAGCAGAAGGGACAUGAGGAUCACCCAUGUUCUCACUUUUU [Magic-13] (puzzle: Brourd's mod of Exclusion 4)
apparent KD of MS2 coat protein (Eterna round: R95, input ligand: microRNA oligo, concentration not stated): 10.5 nM

UGCAGACGAGGAUAUAAAUGAUAUAACAUGAGGAUCACCCAUGUACGAUCGAAUGAUCGUUUAGAAGGCGUCUGCA [E5/11-A2] (Eterna round: R97, puzzle: Exclusion 5)
apparent KD of MS2 coat protein (input ligand: FMN 200 uM): 18.5 nM
apparent KD of MS2 coat protein (input ligand: none): 17.4 nM

UGCAGACGAGGAUAUAGAUUUGAUAACAUGAGGAUCACCCAUGUGAUCGAUAGAUCAGAUUUAGAAGGCGUCUGCA [E5/8-A2] (Eterna round: R97, puzzle: Exclusion 5)
apparent KD of MS2 coat protein (input ligand: FMN 200 uM): 628 nM
apparent KD of MS2 coat protein (input ligand: none): 529 nM

UGCAGACGAGGAUAUGAUUAAUAAUACAUGAGGAUCACCCAUGUAAUACUGAUCUAUGGAUCAGAAGGUGUCUGCA [E5/6-B2] (Eterna round: R97, puzzle: Exclusion 5)
apparent KD of MS2 coat protein (input ligand: FMN 200 uM): 17.7 nM
apparent KD of MS2 coat protein (input ligand: none): 28.3 nM

UGCCAGCGAGGAUAUGCUAGAGGUGUUCCGUGCUCUAAGGGACAUGAGGAUCACCCAUGUAGAAGGCGCACGUC [Eternabot (L1) Solution 20] (Eterna round: R97, puzzle: Exclusion 2)
apparent KD of MS2 coat protein (input ligand: FMN 200 uM): 187 nM
apparent KD of MS2 coat protein (input ligand: none): 194 nM

UGCCGUAGAGGAUAUACGUAGAAAUAGAUUCAUGUAAAACUACAUGAGGAUCACCCAUGUAGAAGGCUAUGGCU [JL-ex2-4.32 Eli mod] (Eterna round: R97, puzzle: Exclusion 2)
apparent KD of MS2 coat protein (input ligand: FMN 200 uM): 243 nM
apparent KD of MS2 coat protein (input ligand: none): 25.3 nM

UGCGGGCUUUUGAGACCUCACAUGAGGAUCACCCAUGUGCUUGUCUUGUAAGUGGGUAGGUCGUUGGCUGACUCACA [Sensor-V1 #100] (Eterna round: R97, puzzle: Sensor, turn-off variant 1)
apparent KD of MS2 coat protein (input ligand: FMN 200 uM): 18.8 nM
apparent KD of MS2 coat protein (input ligand: none): 17.5 nM

UGCGGUAGAGGAUAUACGUAGAAAUAGAUUCAUGUAAAACUACAUGAGGAUCACCCAUGUAGAAGGCUAUCGCU [JL-ex2-4.27 Eli mod] (Eterna round: R97, puzzle: Exclusion 2)
apparent KD of MS2 coat protein (input ligand: FMN 200 uM): 265 nM
apparent KD of MS2 coat protein (input ligand: none): 25.8 nM

UGCGUACAUGAGGAUCACCCAUGUGAGGAUAUUUGGCAUCGCGAGUGCCCAAGGAGAUAGAGAAGGCAUAUGGA [Eternabot (L1) Solution 50] (Eterna round: R97, puzzle: Exclusion 1)
apparent KD of MS2 coat protein (input ligand: FMN 200 uM): 34.3 nM
apparent KD of MS2 coat protein (input ligand: none): 37.2 nM

UGCGUGUGAGGAUAUGCGCGUGGCGAUCUUAAGUUACGCAAGCAGAAGGCACAUGAGGAUCACCCAUGUGGCCA [Eternabot (L1) Solution 20] (Eterna round: R97, puzzle: Exclusion 4)
apparent KD of MS2 coat protein (input ligand: FMN 200 uM): 98.5 nM
apparent KD of MS2 coat protein (input ligand: none): 20.3 nM

UGGAGGUGAGGAUAUACAUGAGGAUCACCCAUGUGGUGAAGUAGAGAGUAGUGGAGUGGUAGAAGGCACGAGUA [Version #1] (Eterna round: R97, puzzle: Exclusion 3)
apparent KD of MS2 coat protein (input ligand: FMN 200 uM): 702 nM
apparent KD of MS2 coat protein (input ligand: none): 352 nM

UGGCUUAGAGGAUAUACAUUGAAUAAGAUUCAUGUAAAACUACAUGAGGAUCACCCAUGUAGAAGGCUAGGCCU [Mat - Exclusion 2 - JL Mod - D73] (Eterna round: R97, puzzle: Exclusion 2)
apparent KD of MS2 coat protein (input ligand: FMN 200 uM): 32.7 nM
apparent KD of MS2 coat protein (input ligand: none): 17.9 nM
